# Experimental data taken from the DeepSol protein solubility set.
# Test: soluble on expression in E. coli; label from the status in PepcDB or PDB records
row,Sequence,soluble on expression in E. coli
1,MNPGGILMTTDIYFSHNNPHDPYAHHTTELNRDTHHLWVVLTTDSDDFDADSFTTEVIRITGYSRHEVNNGLNAMAAMTNLPHLRAIQERYYFLSIRYLASIMIAVAKADPTLWEELDLRITDALTPVTAGEVMIQSSTLSKRIAAWIKELDPEPTPEPIPKEDYVHVHTTDEATYVRIKISGPNRLILNDIITQLKDTDTEDSLPEALMAFLMEKIQLKITKYLFTPHKHPEQVWSPDYGDIGPEAYANATLVCAKDLDEVAGATEKSYTPSEKMKALIRARDGHCRFPGCCVPASKCQVDHIIPWAEGGPTAAWNLQLLCQRHHNMKTDGRFTADANGLAEIRWIGPMDVPAVTRPTGPLVKAMPRGIWGQVLRDRIQARFERIRVRALNKEDLEHHHHHH,not soluble
2,MTERFDCHHCNESLFGKKYILREESPYCVVCFETLFANTCEECGKPIGCDCKDLSYKDRHWHEACFHCSQCRNSLVDKPFAAKEDQLLCTDCYSNEYSSKCQECKKTIMPGTRKMEYKGSSWHETCFICHRCQQPIGTKSFIPKDNQNFCVPCYEKQHAMQCVQCKKPITTGGVTYREQPWHKECFVCTACRKQLSGQRFTARDDFAYCLNCFCDLYAKKCAGCTNPISGLGGTKYISFEERQWHNDCFNCKKCSLSLVGRGFLTERDDILCPDCGKDI,soluble
3,MGHHHHHHGSDSEVNQEAKPEVKPEVKPETHINLKVSDGSSEIFFKIKKTTPLRRLMEAFAKRQGKEMDSLRFLYDGIRIQADQAPEDLDMEDNDIIEAHREQIGGDSEVNQEAKPEVKPEVKPETHINLKVSDGSSEIFFKIKKTTPLRRLMEAFAKRQGKEMDSLRFLYDGIRIQADQAPEDLDMEDNDIIEAHREQIGGMFMAKITGSVVSTKKEDSLTGKKLMIVQPIDANGEHVRSEEVACDSVGAGIGEYVLVARGNAARSVFAEPNSAIDSAIIAIVDSFDK,soluble
4,MAGDPMYKIGIDVGGTNTDAVILDHQLNLIHSVKVPTTDDIQTGIAGALNKVLAESAVDPTKVTHAMLGTTQCTNAIVERKKLAKVGVLRLGYPATASVLPYTAWPKDLVATLSETYALAHGGYEYDGQPLTALDEEELRGILASWRGEVEAIAVIGVFSSLKNDQELFVQALAKEVLGADVPVSCSSMIGSVGLIERENATILNAALHKVIKVTSEGFEQALEQEKIHHAQVYLCQNDGTLMSLTYAKQFPILTIACGPTNSIRGASYLAGLKDAVVLDVGGTTSDIGVLVDGFPRESSLAVDVGGVRTNFRMPDIVSIGVGGGSLVREQPDGSVTVGPDSVGYRITQEALVFGGTQLTTTDIAVRLGHAQVGDPSKVAHLDQAFAEKVYQKIGELVSEAIDRMKTSSADVTVVLVGGGSIIIPEELTGVKALIRNKNGAVANAIGASIAQISGQYEQIYVYSKIQRDAALTDAQEKAVQQAELAGAVPGTIELVEVEETPLAYHPENATRLRVKVVGNMYLEHHHHHH,soluble
5,MGSDKIHHHHHHMPAMQHTQPSRPQLVYLAFGPATYHQEACFSIVSALAQLGSAAGEAMDIQVYTDNAQPYARLPVTVHLLDEATRQAWNAPHGYHFRSKHVLLRQVLQQHPLAVLIDTDTFFRTSPLHLFARVAPNRLLCNAIGTRYGADQKCLLYKNLLAILESRGLADCQMPLVNSGVIGLTAENCDTLDRSIAMMDEFYPLAREAYTLEEFCLAVAAYRNLELAECTDVIHHYWSRKAQFRAKIQAWLRKHEHDPLSPPALADVALVNDQLPRPPTLHRLGYKALSLTLPSHERQFARELLYGCYPYPNEFDRACASAWWDKALENLNDRYGHVEPERLRQCLRHPGLRLSLGERRKDIEAHLLRSTQA,not soluble
6,DDFEDSLEYLEPLDHDAYIVRLNFTGENTTEPIISYMTKTHNIDVNILEADIKNTKNGSLGFLVIHIPHISEEHFKQFKHNLHEQHVNVEVLKHG,not soluble
7,MIRAVFFDFVGTLLSVEGEAKTHLKIMEEVLGDYPLNPKTLLDEYEKLTREAFSNYAGKPYRPIRDIEEEVMRKLAEKYGFKYPENFWEIHLRMHQRYGELYPEVVEVLKSLKGKYHVGMITDSDTEYLMAHLDALGIKDLFDSITTSEEAGFFKPHPRIFELALKKAGVKGEEAVYVGDNPVKDCGGSKNLGMTSILLDRKGEKREFWDKCDFIVSDLREVIKIVDELNGQ,soluble
8,MKFYILLVVLVAFVAAKPHPGYGRPSYGGGYGGGGGDFGGGGSGGQWGSQSSSFQQSQSSGGFQNNAGGGFGGGMGPGGGGWGRR,not soluble
9,MKYNATKAISIAPPTIPTVNPTINEVFSFELLELELEEEEDKLLSCESDCFAQYVDGHLSHVNEVITQYSPEAQTGHDAVESQTTHPSLPLVAEVEEVAVLDKDELAEALEELDIFCLIFRKRT,soluble
10,MMKRQLHRMRQLAQTGSLGRTPETAEFLGEDLLQVEQRLEPAKRAAHNIHKRLQACLQGQSGADMDKRVKKLPLMALSTTMAESFKELDPDSSMGKALEMSCAIQNQLARILAEFEMTLERDVLQPLSRLSEEELPAILKHKKSLQKLVSDWNTLKSRLSQATKNSGSSQGLGGSPGSHSHTTMANKVETLKEEEEELKRKVEQCRDEYLADLYHFVTKEDSYANYFIRLLEIQADYHRRSLSSLDTALAELRENHGQADHSPSMTATHFPRVYGVSLATHLQELGREIALPIEACVMMLLSEGMKKEGLFRLAAGASVLKRLKQTMASDPHSLEEFCSDPHAVAGALKSYLRELPEPLMTFDLYDDWMRAASLKEPGARLQALQEVCSRLPPENLSNLRYLMKFLARLAEEQEVNKMTPSNIAIVLGPNLLWPPEKEGDQAQLDAASVSSIQVVGVVEALIQSADTLFPGDINFNVSGLFSAVTLQDTVSDRLASEELPSTAVPTPATTPAPAPAPAPAPAPALASAATKERTESEVPPRPASPKVTRSPPETAAPVEDMARRSPRGATGR,soluble
11,MATKITINVTNNSTSTQNFFFFQQPAVYSGGPKVYTNSLYSQTLLPYATSGSVLSFTMILQYYAGVQQQVDPPQIGQPSGQLGAIQPIELTPASGGTPTKNTTNMTVDPSLGLSVPVSTDGPQAGSFRIVTPVYDPVLMNYSAGSAVQSLTGAITLSNFVTAQPNTNLDCQPIIKFYVQTGTYTAGTVMNFTSSSVGAALCDATPGFTTFNVSYNPNGTWTVKNMALSQLANGSRGLLEKSSFTTELNAAAQIAEVLNEAGTAVVSTGLAANFLRPVTVTNLTAPGAIIRNRDYQVGPVDGRHLGLTCTDVAGNTAVFD,not soluble
12,MAHHHHHHMNIFKNIYNTEMMSNNNTVDVNMMDNNPAARLEELRTIMKKNKIDVYILINSDEHNSEIINEKDKKIVKITNYSGADGILIVTKDKPILYVNALYELQAMNELDQNLFTLRISRIDNRDEIFETISSLEFNTIAFDGKNTSVVFYEKLRKALLNAYPKKKIVEKIIYNNNFDDVNKKDDENVLNFLVLEKSLVEIKDYPVNNKTLYIHDRKYNGACAGEKIDKLKQSLMYDIKNVDNLLLSELDEIAYLLNLRGYDYQYSPLFYSYLLFQFDREEQDFSKIVFFTTVKNLPADVKNLLEINKVIVKEYEEIVPYLRDVVIPSIPKHNDDNPDFKKYDISLSPYINLMIYKLFDRKNVLLQNSPVVKMKAVKNDVEIDNMKQAHILDGLALLQFFHWCEQKRKTKELFNETEMSLRHKVDYFRSTKKNFIFPSFSTISASGPNAAVIHYECTDKTNATIKPAIYLLDSGGQYLHGTTDVTRTTHFGEPTAEEKRIYTLVLKGHLRLRKVIFASYTNSSALDFIARENLFNNFMDYNHGTGHGVGLTLNVHEGGCSIGPVGGAPLKKNMVLSNEPGYYMKDKFGVRIENMQYVISKEITDTTEYLSFDDLTMYPYEKKLLDFSLLTNQEIKELNEYHTTIRNTLLPLVKQSPQEYGESVEKYLIEITEPIAIHNN,soluble
13,MGSDKIHHHHHHADNNKWKPLFGKNLENANYNPEVWSETDGVLGAVKDESIWTKDEYENFELDLDFKTDVGTNSGVVVYCTDTKDWIPNSVEIQIADDHCEKWGNGKPYEKCGAIYGHLGAVQDKVVKKPGEWNHMRIKCAGQHIMVILNGKKVTEMDMSKWTSGTKNPDGSDIPSWLPKPFAELPTKGFIGLQGKHGDSLIWFRNIKIRSL,not soluble
14,MSPANRVVQPYSKEDLAIQVSQLSGSRAAIWKALDSIDSWSYRVFDVQAAMSGDDYLSLSTQTHGGSLLITMYALLCMHDFLQKFKIDEQIALNWISAVEASYHGNPYHNSMHAADVLQITDFIITQGGLAKRCDLSDIQVFSALLAASIHDFDHPGINNNFHIKTGSYLATLYNDRSVLENLHVSSVFELMKNPAFNILASFSDEQHHEVRETMIEMVLATDMGSHGKYVASLKGKMQEHSSFTQTAEQNLCLAIALKMADISNCGRPLDIYLRWGAKVSDEFYQQGDRERNLGLECSPFMDRLQPSLAKSQIAFMNYIITPFFEQVAELLPDMRFAVALVEENKAYWANHDDS,not soluble
15,MRIILLGAPGAGKGTQAQFIMEKYGIPQISTGDMLRAAVKAGSELGLKAKEIMDAGKLVTDELVIALVKERITQEDCRDGFLLDGFPRTIPQADAMKEAGIKVDYVLEFDVPDELIVERIVGRRVHAASGRVYHVKFNPPKVEDKDDVTGEELTIRKDDQEATVRKRLIEYHQQTAPLVSYYHKEADAGNTQYFKLDGTRNVAEVSAELATILG,not soluble
16,MRIHSAGHSLPAPGPSVETTEKAVQSSSAQNPASCSSQTERPEAGSTQVRPNYPYSSVKTRLPPVSSTGQAISDTPSSLPGYLLLRRLDRRPLDEDSIKALVPADEALREARRALPFGRGNIDVDAQRTHLQSGARAVAAKRLRKDAERAGHEPMPENDEMNWHVLVAMSGQVFGAGNCGEHARIASFAYGALAQESGRSPREKIHLAEQPGKDHVWAETDNSSAGSSPIVMDPWSNGAAILAEDSRFAKDRSAVERTYSFTLAMAAEAGKVARETAENVLTHTTSRLQKRLADQLPNVSPLEGGRYQPEKSVLDEAFARRVSDKLNSDDPRRALQMEIEAVGVAMSLGAEGVKTVARQAPKVVRQARSVASSKGMPPRR,not soluble
17,MGSDKIHHHHHHMKISEVATPNFLLDLDQLEKNIDKIQQICTNNNKQLWPMLKTHKSTYIARLQKNAGASGFLVGTLDEGEALIKAGFEDIMLAYPYMGEVNINRIVTMASKINLICATDNIECAKAYSEAFSKSKIECKLLIIVDCGLHRFGVEPEKVVELATEISKLENIKIVGISSHPGQVYGCSSPEGVPDVCVQEDSSMEKAYKALTDNGFNIEIVASGSTPTVESEAACKTITAVRPGNYVYYDAIQIGLGCATEDMCALTVVCTVISKNSSGYYLIDCGSKCLGLDKGAHGNSSIVGYGRVCGHPELTIDSLSEEVGKIKVNGETDIKIGDRIRIIPNHSCSTANLTSNLLGFRGDTIEKVIEVDIRENSKQIIL,not soluble
18,MGSDKIHHHHHHMAKRKKDTMEFRFYELPQGESALVLCGESWKRVYGHDELHLHFHNLLEIGICREGDGNMYLDEDIYQYHDGDITFIPENFPHVTVSYGEVVNFWEYIFIDLRSVIEEMFPNNAAFQNDAVSTISKKAFMTNVYQSPVVAGYINSIIRETNEHKEYSQRTIKLLVQGIVIELLRKYDELPEEDNDVVKGTNMSQIATALDYMNKHYSETIKAGELSSLCNMSETHFRRLFESYINMPPMEYLNLIRVQKACELMKKTNEPMELIAQKCGFTTQSTFNRNFRKFLNTSPYQWKINPENYEHKLLNFRISALKGW,not soluble
19,MMEPTIHLRQAKAGDIPAILEIEQECFQEDSFSREQFVYLICRSKGTFYVVVEQERIIAYVSLLFHAGTRYLRIYSIAVHPDCRGRKLGQLLMERTIETALDCRAVKITLEVKESNTPAIKLYMKNGFIPVGVKPNYYHDGSDAIYMQRHM,not soluble
